Experimental findings from PMC11518761, “Making the effect visible – OX40 targeting nanobodies for in vivo imaging of activated T cells” (Frontiers in Immunology, 2024) are described below.

Test [1] deals with T1, recombinant hOX40, extracellular part (Leu 29 - Ala 216) (human, UniProt P43489 29-216).
T1 chain: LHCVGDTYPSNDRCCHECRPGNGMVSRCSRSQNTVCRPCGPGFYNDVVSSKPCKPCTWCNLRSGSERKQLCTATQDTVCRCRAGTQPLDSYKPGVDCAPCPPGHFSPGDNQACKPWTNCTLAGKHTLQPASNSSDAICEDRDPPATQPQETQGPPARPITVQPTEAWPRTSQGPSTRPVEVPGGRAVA
Nature of the test: BLI.

Test [2] concerns the target T1, recombinant hOX40, extracellular part …. Nature of the test: BLI. (In general: Biolayer interferometry detects binding as a change in optical thickness at a sensor tip.)
Test [3] addresses T2, hOX40 full length on U2OS cells (U2OS-hOX40) (human, UniProt P43489 29-277).
T2 chain: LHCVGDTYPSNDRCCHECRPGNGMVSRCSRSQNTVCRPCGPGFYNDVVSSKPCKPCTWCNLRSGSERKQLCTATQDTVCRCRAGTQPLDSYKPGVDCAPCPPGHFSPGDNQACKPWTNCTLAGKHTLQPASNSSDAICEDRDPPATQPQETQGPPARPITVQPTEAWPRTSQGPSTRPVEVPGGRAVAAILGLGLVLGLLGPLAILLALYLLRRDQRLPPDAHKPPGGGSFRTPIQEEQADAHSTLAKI
Nature of the test: FACS. Background: Flow cytometry measures light scatter and fluorescence of single cells or particles in a stream.

Test [4] has as its target T3, endogenous hOX40 on activated human T cells (Homo sapiens, UniProt P43489).
T3 construct: human OX40 (CD134/TNFRSF4), endogenous on T cells; also called physiologically expressed hOX40; source: endogenous, hPBMCs of healthy donors stimulated 24 h with PHA-L and IL-2 (CD3+ T cells)
Nature of the test: flow cytometry on cells; hPBMCs of three donors after 24 h PHA-L/IL-2 stimulation, AF647-labeled Nbs (200 nM; 400 nM for T cell subpopulations), 4°C, gated on CD3+ (and CD4+, CD8+, Treg). The note with it: one partner purified.

Test [5] has as its target T4, hOX40 full length on U2OS cells (U2OS-hOX40) (Homo sapiens, UniProt P43489).
T4 construct: human OX40 (CD134/TNFRSF4), cDNA GenBank NM_003327.3 in an IRES-eGFP/Blasticidin S deaminase vector; Also used as the target of the functional rows, where hOX40 stood on Jurkat-based OX40 effector cells (Promega); also called cellular expressed hOX40; hOX40 full length (D1-4); source: U2OS cells stably overexpressing hOX40, on the cell surface
Nature of the test: flow cytometry on cells; U2OS-hOX40 cells with dilution series of AF647-labeled Nbs (O12, O18 from 2.5 µM; O7, O19 from 10 µM), 4°C, 30 min, FACS buffer; KD as half-maximum binding at equilibrium, four-parametric sigmoidal model. The note with it: one partner purified.

Test [6] deals with T5, recombinant hOX40, extracellular part (Leu 29 - Ala 216) (human, UniProt P43489).
T5 construct: human OX40 (CD134/TNFRSF4), extracellular part, Leu29 to Ala216; The limits are stated for the immunogen; the BLI methods say only 'hOX40' / 'recombinant hOX40'; also called CD134; TNFRSF4; source: bought: Acrobiosystems, produced in human HEK293 cells
Nature of the test: BLI; biotinylated Nb (5 µg/mL) immobilised on streptavidin biosensors; hOX40 dilution series 0.2 nM - 320 nM, association 300 s, dissociation 720 s; Octet buffer (PBS, 0.1% BSA, 0.02% Tween20); 1:1 ligand-binding model, global fitting. The note with it: both partners purified.

In test [7] the target is T6, human OX40 on HT1080 cells (HT1080-hOX40) (Homo sapiens, UniProt P43489).
T6 construct: human OX40 (CD134/TNFRSF4); the construct used for HT1080 cells is not described; source: HT1080 cells stably expressing human OX40, as subcutaneous xenograft tumors in CD1 nude mice
Nature of the test: in vivo optical imaging; 5 µg O18-AF647 i.v. in CD1 nude mice with subcutaneous HT1080-hOX40 or HT1080-WT tumors; imaging over 6 h and ex vivo imaging of explanted tumors. The note with it: one partner purified.

Test [8] deals with hOX40-Nbs with KD values in the pico- to low nanomolar range (O12, O18 and O19). Nature of the test: BLI; biotinylated Nb (5 µg/mL) immobilised on streptavidin biosensors; hOX40 dilution series 0.2 nM - 320 nM, association 300 s, dissociation 720 s; Octet buffer (PBS, 0.1% BSA, 0.02% Tween20); 1:1 ligand-binding model, global fitting.
In test [9] the target is T7, murine OX40 on U2OS cells (Mus musculus, UniProt P47741).
T7 construct: murine OX40, DNA bought from Sino Biological (Catalog Number MG50808-NM); The catalogue suffix -NM may denote an N-terminal Myc tag (surmised); also called mOX40; source: U2OS cells, transiently transfected, on the cell surface
T7 sequence (P47741 20-272): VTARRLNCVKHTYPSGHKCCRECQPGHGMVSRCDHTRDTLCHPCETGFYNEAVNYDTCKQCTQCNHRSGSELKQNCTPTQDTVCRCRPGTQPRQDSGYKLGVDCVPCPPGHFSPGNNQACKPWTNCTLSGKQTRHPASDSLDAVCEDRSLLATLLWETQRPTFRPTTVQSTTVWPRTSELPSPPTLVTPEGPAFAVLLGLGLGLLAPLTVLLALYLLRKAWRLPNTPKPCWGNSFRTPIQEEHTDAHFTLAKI
Nature of the test: immunostaining of cells or tissue; live-cell immunofluorescence of U2OS cells expressing hOX40 (stable) or murine OX40 (transient) with 10 -1000 nM AF647-labeled Nbs, 30 min, 4°C. The note with it: one partner purified.

B1: hOX40-Nb O19 (VHH)
VHH: QVQLQESGGGLVQPGGSLRLSCAGSTDTFSMSAAVSWARQAPGKGLEWVSSILSDGSTYYADSVRGRFTISRDNANNTGSLQMNNLKVEDTAVYYCTNLRGRLWSNHKDDYGGQGSRVTVSS
modifications: biotin where immobilised in BLI (site not stated)
Regarding B1, the Kd (in general, the free concentration of one partner at which half of the binding sites on the other are occupied at equilibrium, for simple one-to-one binding) in [1] worked out at 3.41 nM. For the same molecule, the koff (as a rule, a measure of how fast the partners let go of each other) in test [2] stood at 0.00021 s⁻¹.

B2: AF647-labeled hOX40-Nb O19 (VHH)
VHH: QVQLQESGGGLVQPGGSLRLSCAGSTDTFSMSAAVSWARQAPGKGLEWVSSILSDGSTYYADSVRGRFTISRDNANNTGSLQMNNLKVEDTAVYYCTNLRGRLWSNHKDDYGGQGSRVTVSS
modifications: C-terminal Gly-Gly-Gly-propyl-azide attached by sortase A and clicked to DBCO-AF647 (labeling ratio 1:1)
Molecule B2 came in with a Kd in test [3] of 9.95 nM.

B3: AF647-labeled hOX40-Nb O19 (VHH)
VHH: QVQLQESGGGLVQPGGSLRLSCAGSTDTFSMSAAVSWARQAPGKGLEWVSSILSDGSTYYADSVRGRFTISRDNANNTGSLQMNNLKVEDTAVYYCTNLRGRLWSNHKDDYGGQGSRVTVSS
notes: Uncoupled Nb was removed by Ni-NTA, so the His tag is probably lost on sortase coupling (surmised); also called fluorescent Nb O19; source: E. coli XL-1, purified; sortase A coupling, click labelling with DBCO-AF647, HIC
Consider B3, for which the binding result in [4] and in [5] was “binds” each time.

B4: hOX40-Nb O19 (VHH)
VHH: QVQLQESGGGLVQPGGSLRLSCAGSTDTFSMSAAVSWARQAPGKGLEWVSSILSDGSTYYADSVRGRFTISRDNANNTGSLQMNNLKVEDTAVYYCTNLRGRLWSNHKDDYGGQGSRVTVSS
notes: source: E. coli XL-1 (pHEN6), purified (IMAC, SEC)
On to B4, for which the binding result in test [6] is listed as “binds”.

B5: hOX40-Nb O18 (VHH)
VHH: QVQLVESGGGLVQPGGSLRLSCAASGFTLEDYVIGWFRQAPGKEREEVSCISGSGGIRNVADSMEGRATISRDNAKNTVYLQMNSLKPEDTAVYYCAAGFETSYSYSYYCGVHEYDYWGQGTLVTVSS
modifications: biotin where immobilised in BLI (site not stated)
As for B5, in [1], the Kd is 1.93 nM. The koff in test [2] amounted to 0.00075 s⁻¹.

B6: AF647-labeled hOX40-Nb O18 (VHH)
VHH: QVQLVESGGGLVQPGGSLRLSCAASGFTLEDYVIGWFRQAPGKEREEVSCISGSGGIRNVADSMEGRATISRDNAKNTVYLQMNSLKPEDTAVYYCAAGFETSYSYSYYCGVHEYDYWGQGTLVTVSS
notes: Uncoupled Nb was removed by Ni-NTA, so the His tag is probably lost on sortase coupling (surmised); also called O18_(AF647); fluorescently-labeled Nb O18; source: E. coli XL-1, purified; sortase A coupling, click labelling with DBCO-AF647, HIC
Turning to B6, in test [7], the “fold signal intensity in HT1080-hOX40 over HT1080-WT tumors, 6 h post injection” value was about 7 fold. This molecule also registered a Kd in test [5] of about 0.3 nM.

B7: recombinant hOX40, extracellular part (Leu 29 - Ala 216) (domain or fragment)
chain: LHCVGDTYPSNDRCCHECRPGNGMVSRCSRSQNTVCRPCGPGFYNDVVSSKPCKPCTWCNLRSGSERKQLCTATQDTVCRCRAGTQPLDSYKPGVDCAPCPPGHFSPGDNQACKPWTNCTLAGKHTLQPASNSSDAICEDRDPPATQPQETQGPPARPITVQPTEAWPRTSQGPSTRPVEVPGGRAVA
The molecule B7 yielded a Kd in test [8] of 0.2 to 3.4 nM.

B8: hOX40-Nb O12 (VHH)
VHH: DVQLQESGGGLVQPGGSLRLSCAASGFTLDNYAIGWFRQAPGKEREGVSCISSSGESTNYADSVKGRFTISRDNAKNTVYLQTNSLKPEDTAVYYCAAVDDIGTTVQFMCNMGPYEYDYWGQGSPVTVSS
modifications: biotin where immobilised in BLI (site not stated)
Turning to B8, the Kd in [1] stood at 0.21 nM. The koff in [2] was 2e-05 s⁻¹.

B9: AF647-labeled hOX40-Nb O12 (VHH)
VHH: DVQLQESGGGLVQPGGSLRLSCAASGFTLDNYAIGWFRQAPGKEREGVSCISSSGESTNYADSVKGRFTISRDNAKNTVYLQTNSLKPEDTAVYYCAAVDDIGTTVQFMCNMGPYEYDYWGQGSPVTVSS
modifications: C-terminal Gly-Gly-Gly-propyl-azide attached by sortase A and clicked to DBCO-AF647 (labeling ratio 1:1)
Turning to B9, binding in test [3] was put at a Kd of 0.07 nM.

B10: AF647-labeled hOX40-Nb O12 (VHH)
VHH: DVQLQESGGGLVQPGGSLRLSCAASGFTLDNYAIGWFRQAPGKEREGVSCISSSGESTNYADSVKGRFTISRDNAKNTVYLQTNSLKPEDTAVYYCAAVDDIGTTVQFMCNMGPYEYDYWGQGSPVTVSS
notes: Uncoupled Nb was removed by Ni-NTA, so the His tag is probably lost on sortase coupling (surmised); also called fluorescent Nb O12; source: E. coli XL-1, purified; sortase A coupling, click labelling with DBCO-AF647, HIC
For B10, in [5], the Kd is about 0.1 nM.

B11: hOX40-Nb O7 (VHH)
VHH: DVQLVESGGGLVQPGGSLRLSCAASGFTFGSYAMGWARQVPGKGLEWVSGIYSDGSTYYADSVKGRFTISRDNAKNTVYLQMNSLKPEDTAVYYCATWGAAAPYDYWGQGTQVTVSS
modifications: biotin where immobilised in BLI (site not stated)
Regarding B11, in [2], the koff was found to be 0.00117 s⁻¹.

B12: hOX40-Nb O7 (VHH)
VHH: DVQLVESGGGLVQPGGSLRLSCAASGFTFGSYAMGWARQVPGKGLEWVSGIYSDGSTYYADSVKGRFTISRDNAKNTVYLQMNSLKPEDTAVYYCATWGAAAPYDYWGQGTQVTVSS
notes: as for B4
B12: in test [6], the Kd was about 150 nM.

B13: AF647-labeled hOX40-Nb O7 (VHH)
VHH: DVQLVESGGGLVQPGGSLRLSCAASGFTFGSYAMGWARQVPGKGLEWVSGIYSDGSTYYADSVKGRFTISRDNAKNTVYLQMNSLKPEDTAVYYCATWGAAAPYDYWGQGTQVTVSS
notes: Uncoupled Nb was removed by Ni-NTA, so the His tag is probably lost on sortase coupling (surmised); also called fluorescent Nb O7; source: E. coli XL-1, purified; sortase A coupling, click labelling with DBCO-AF647, HIC
For B13, the binding result in test [9] is recorded as “binds”.

B14: AF647-labeled hOX40-Nb O7 (VHH)
VHH: DVQLVESGGGLVQPGGSLRLSCAASGFTFGSYAMGWARQVPGKGLEWVSGIYSDGSTYYADSVKGRFTISRDNAKNTVYLQMNSLKPEDTAVYYCATWGAAAPYDYWGQGTQVTVSS
modifications: C-terminal Gly-Gly-Gly-propyl-azide attached by sortase A and clicked to DBCO-AF647 (labeling ratio 1:1)
In test [3], B14 had a Kd of 5.99 nM.
